What was measured:
Assay type in all cases: cell-based
Fusarium oxysporum = experiment: Antifungal activity, inhibition of growth in liquid phase
Procedure: (§1) The antifungal activity was determined against Neurospora crassa and Fusarium oxysporum by a test of inhibition of growth in liquid phase. 80 μl of fungal spores (final concentration: 10^4 spores/ml) are suspended in ½ Potato Dextrose Broth (DIFCO) supplemented with tetracycline (10 μg/ml) and cefotaxime (100 μg/ml). This suspension was added to 10 μl of the fraction to be tested in microtitre plates. The final volume is brought to 100 μl by addition of 10 μl of water. Growth inhibition can be observed under a microscope after 24 hours of incubation at 25° C. in the dark, and measured by the variation in the optical density at 600 nm after 48 hours.

Neurospora crassa = experiment: as above
Procedure: as §1

Micrococcus luteus = experiment: Measurement of the bacteriostatic properties (CFU over time); conditions: for colonies formed (cfu): 18 μM (8 times MIC)
Procedure: A midlogarithmic phase culture of Micrococcus luteus in the “Poor Broth” medium defined above was incubated at 30° C. in the presence of the peptide or (as control) of water. The final concentration of the molecules tested is 8 times higher than the MIC. 20-μl alquots are collected at various time intervals and cultured on nutrient agar plate. The number of colonies formed (CFU) is determined after 24 hours of incubation at 37° C.

Escherichia coli D31 = experiment: Antibacterial assay, inhibition of growth in liquid phase (MIC); conditions: Escherichia coli D31, 24 h at 30° C.
Procedure: The bacteria are cultured with a starting optical density A600=0.001 in “Poor-Broth” nutrient medium (1% bactotryptone, 0.5% NaCl w/v).
The fractions were tested by inhibition of growth in liquid phase.
10 μl aliquots of each fraction to be tested are incubated in microtitre plates with 100 μl of a suspension of bacteria at the midlogarithmic phase.
The bacterial growth is measured by determining the optical density A600 after an incubation of 24 hours at 30° C.
An identical procedure was used to determine the minimum inhibitory concentration (MIC) of the molecules on these bacterial strains. The MIC values correspond to an interval a-b of peptide concentrations, where a represents the highest concentration at which bacterial growth is observed, and b is the lowest concentration which causes 100% inhibition of growth.

B1: Penaeidin 3: antimicrobial peptide of 62 amino acids, about 6.6 kDa, from Penaeus vannamei haemolymph (protein, listed as Penaeus vannamei)
chain: EVYKGGYTRPIPRPPPFVRPLPGGPIGPYNGCPVSCRGISFSQARSCCSRLGRCCHVGKGYS
MIC (Fusarium oxysporum): > 5 µM
MIC (Neurospora crassa): > 5 µM
colonies formed (cfu) (Micrococcus luteus; incubation time 1 min): 4.30 10^4 cfu/ml
colonies formed (cfu) (Micrococcus luteus; incubation time 30 min): 4.45 10^4 cfu/ml
colonies formed (cfu) (Micrococcus luteus; incubation time 2 h): 3.15 10^4 cfu/ml
colonies formed (cfu) (Micrococcus luteus; incubation time 4 h): 4.60 10^4 cfu/ml
colonies formed (cfu) (Micrococcus luteus; incubation time 7 h): 4.50 10^4 cfu/ml
colonies formed (cfu) (Micrococcus luteus; incubation time 24 h): 5.60 10^4 cfu/ml
bacterial growth (Micrococcus luteus; 18 μM, after an incubation of 24 hours): no bacterial growth is observed
kind of antibacterial effect (Micrococcus luteus; 18 μM, number of colonies constant over sample collections): bacteriostatic effect
MIC (Escherichia coli D31): > 5 µM
